Laboratory results: article PMC3574121

Legend:
[1] = molecular target: His-tagged FIV recombinant p24 capsid protein (Feline Immunodeficiency Virus, Petaluma strain) (Feline immunodeficiency virus (Petaluma strain)) (UniProt P16087); assay: dynamic light scattering; p24-His at 7 mg/ml, 50 mM sodium phosphate pH 7.4, 23°C; mean diameter 6.8 nm, single peak; monomer to dimer
[2] = molecular target: His-tagged FIV recombinant p24 capsid protein (Feline Immunodeficiency Virus, Petaluma strain) (Feline immunodeficiency virus (Petaluma strain)) (UniProt P16087); assay: ITC; dilution ITC: p24 at 7 mg/ml (243 µM) injected into buffer alone, 50 mM sodium phosphate pH 7.4, 30°C; dimer dissociation model; dimer to monomers
[3] = molecular target: His-tagged FIV recombinant p24 capsid protein (Feline Immunodeficiency Virus, Petaluma strain) (Feline immunodeficiency virus (Petaluma strain)) (UniProt P16087); assay: cross-linking; p24 at 7 mg/ml with BS3 (20:1 w/w BS3:p24), 30 min at room temperature, SDS-PAGE; dimer seen with and not without BS3; no higher molecular weight species

In the case of “His-tagged FIV recombinant p24 capsid protein (Feline Immunodeficiency Virus, Petaluma strain) (from UniProt P16087 136-357) (natural protein)”, the stoichiometry N [1] is reported as 2, the Kd [2] is reported as 20 µM and the stoichiometry N [3] is reported as 2.
